Experiments:
[1] = biological target: T1, HcoV-OC43 S protein (HcoV-OC43, UniProt P36334 14-1297); experiment: direct ELISA, OD450
T1 sequence: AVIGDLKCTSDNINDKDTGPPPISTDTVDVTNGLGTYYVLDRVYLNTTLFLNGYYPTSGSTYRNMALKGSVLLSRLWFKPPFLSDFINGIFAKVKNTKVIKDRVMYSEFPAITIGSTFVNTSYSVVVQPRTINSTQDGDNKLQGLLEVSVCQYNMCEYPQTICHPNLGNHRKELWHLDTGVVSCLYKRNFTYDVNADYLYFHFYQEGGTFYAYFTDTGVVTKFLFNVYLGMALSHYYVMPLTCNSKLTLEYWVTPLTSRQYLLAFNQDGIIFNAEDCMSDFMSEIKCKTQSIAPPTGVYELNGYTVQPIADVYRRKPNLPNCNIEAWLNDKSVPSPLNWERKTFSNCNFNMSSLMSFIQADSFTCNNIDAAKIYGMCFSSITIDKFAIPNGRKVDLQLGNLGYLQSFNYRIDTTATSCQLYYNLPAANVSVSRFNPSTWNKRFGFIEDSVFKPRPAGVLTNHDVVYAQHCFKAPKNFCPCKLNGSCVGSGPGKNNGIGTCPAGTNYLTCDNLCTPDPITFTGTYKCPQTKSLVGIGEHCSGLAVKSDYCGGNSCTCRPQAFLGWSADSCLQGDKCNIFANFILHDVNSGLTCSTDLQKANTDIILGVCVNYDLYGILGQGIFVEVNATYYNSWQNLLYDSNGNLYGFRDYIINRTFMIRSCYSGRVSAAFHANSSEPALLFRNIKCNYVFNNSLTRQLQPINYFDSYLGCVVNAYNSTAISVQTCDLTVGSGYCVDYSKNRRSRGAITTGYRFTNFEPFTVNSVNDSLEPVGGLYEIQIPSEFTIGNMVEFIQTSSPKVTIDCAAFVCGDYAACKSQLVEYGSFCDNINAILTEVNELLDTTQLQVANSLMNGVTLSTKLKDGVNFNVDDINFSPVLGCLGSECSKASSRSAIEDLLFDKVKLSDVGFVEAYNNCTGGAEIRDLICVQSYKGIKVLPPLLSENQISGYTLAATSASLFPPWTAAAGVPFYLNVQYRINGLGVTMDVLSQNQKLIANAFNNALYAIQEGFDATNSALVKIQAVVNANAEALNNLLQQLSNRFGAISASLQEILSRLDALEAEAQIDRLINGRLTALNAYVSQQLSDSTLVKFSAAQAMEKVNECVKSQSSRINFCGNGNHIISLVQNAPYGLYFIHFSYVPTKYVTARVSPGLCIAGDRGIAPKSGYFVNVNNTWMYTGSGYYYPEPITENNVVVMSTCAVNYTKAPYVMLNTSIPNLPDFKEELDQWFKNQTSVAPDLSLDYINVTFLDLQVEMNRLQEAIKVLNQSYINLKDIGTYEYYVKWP

[2] = biological target: T2, HcoV-229E S protein (HcoV-229E, UniProt P15423 16-1115); experiment: direct ELISA, OD450
T2 sequence: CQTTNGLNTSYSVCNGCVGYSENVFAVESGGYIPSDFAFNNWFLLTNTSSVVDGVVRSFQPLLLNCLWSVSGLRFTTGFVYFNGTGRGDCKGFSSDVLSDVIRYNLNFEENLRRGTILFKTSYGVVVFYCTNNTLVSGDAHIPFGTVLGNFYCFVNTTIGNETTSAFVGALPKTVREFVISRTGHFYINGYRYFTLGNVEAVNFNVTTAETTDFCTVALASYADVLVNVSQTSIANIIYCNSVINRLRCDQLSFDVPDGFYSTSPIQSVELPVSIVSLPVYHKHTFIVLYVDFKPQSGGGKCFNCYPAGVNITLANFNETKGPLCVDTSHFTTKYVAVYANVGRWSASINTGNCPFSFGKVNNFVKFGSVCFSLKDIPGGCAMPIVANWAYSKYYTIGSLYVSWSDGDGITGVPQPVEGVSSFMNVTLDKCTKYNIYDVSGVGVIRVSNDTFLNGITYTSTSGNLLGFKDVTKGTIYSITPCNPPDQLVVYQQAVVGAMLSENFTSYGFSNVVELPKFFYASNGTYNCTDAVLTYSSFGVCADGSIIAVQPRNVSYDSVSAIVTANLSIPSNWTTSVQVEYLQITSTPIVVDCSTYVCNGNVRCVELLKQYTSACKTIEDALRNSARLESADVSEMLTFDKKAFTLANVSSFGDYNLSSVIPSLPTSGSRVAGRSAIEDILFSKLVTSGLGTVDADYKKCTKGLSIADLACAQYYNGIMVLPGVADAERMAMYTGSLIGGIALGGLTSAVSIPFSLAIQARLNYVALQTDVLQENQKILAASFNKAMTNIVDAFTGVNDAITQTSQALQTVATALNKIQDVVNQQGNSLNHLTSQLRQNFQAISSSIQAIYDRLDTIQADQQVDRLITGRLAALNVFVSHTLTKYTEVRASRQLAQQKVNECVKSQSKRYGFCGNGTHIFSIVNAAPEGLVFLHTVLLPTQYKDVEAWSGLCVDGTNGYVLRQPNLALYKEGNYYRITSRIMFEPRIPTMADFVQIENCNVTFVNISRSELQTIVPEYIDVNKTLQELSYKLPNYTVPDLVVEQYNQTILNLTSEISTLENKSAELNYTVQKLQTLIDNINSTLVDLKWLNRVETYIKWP

[3] = biological target: MERS-CoV Spike protein (MERS-CoV, UniProt K9N5Q8 18-1296); experiment: direct ELISA, OD450
[4] = biological target: SARS-CoV-2 Spike S1 protein (SARS-CoV-2, UniProt P0DTC2 16-685)
[5] = biological target: T3, RBD (receptor binding domain) of the SARS-CoV-2 S1 (SARS-CoV-2, UniProt P0DTC2 319-541); experiment: direct antigen ELISA, RBD coated, antibody titrated, anti-rabbit IgG-HRP
T3 construct: domain: RBD; also called RBD domain protein

B1: rabbit monoclonal antibody 1H1 against the SARS-CoV-2 S1 (antibody, V domains shown)
VH: QSLEESGGDLVKPGASLTLTCTASGFSFSSGYDMCWVRQAPGKGLEWIACIGTGSSGNIYYASWAKGRFTISKTSSTTVTLQMTSLTAADTATYFCARDDADYAGPDYFNLWGPGTLVTVSS
VL: DIVMTQTPASVSEPVGGTVTIKCQASESISNWLAWYQQKPGQPPKLLIYAAFTLASGVPSRFKGSGSGTQFTLTINGVECADAATYYCQQTYSSRDVDNVFGGGTEVVVKG
B1: no binding [1]; no binding [2]; no binding [3]. The “EC50 (read off the curve)” value [4] was ~0.04 µg/mL.

B2: rabbit monoclonal antibody 1A3 against the SARS-CoV-2 S1 (antibody, V domains shown)
VH: QSLEESGGRLVTPGTPLTLTCTVSGFSFSSYHMGWVRQAPGEGLEWIGTLIGIAGNTYYASWAKGRFSISKTSTTVDLKMTSPTTEDTATYWCARIVTATFEFWGPGTLVTVSS
VL: AQVLTQTPSPVSAAVGGTVTISCQASQSVNMNLLSWFQQKPGQPPKLLIYQASNLASGVSARFKGSGSGTQFTLTINEIQCDDAATYYCQGDMGGWMFPFGGGTEVVVTG
B2: no binding [1]; no binding [2]; no binding [3]. B2: no binding (tested: 1000 ng/ml) [5].

B3: rabbit monoclonal antibody 9A5 against the SARS-CoV-2 S1 (antibody, V domains shown)
VH: QSVEESGGRLVTPGTPLTLTCTVSGFSLSAYQMIWVRQTPGKGLEYIGIMHTGTSAYYANWAKGRFTISKTSSTTVDLKMTSPTTEDTATYFCGRNLNEGFTGAYPFNLWGPGTLVAVSS
VL: DVVMTQTPASVEAAVGGTVTIKCQASQSIGSNLAWYQKKPGQPPKLLIYQASNLASGVPSRFKGSGSGTQFTLTISDLECADAATYYCQMNYYISSSYTYTFGGGTEVVVKG
B3: no binding [1]; no binding [2]; no binding [3].

B4: rabbit monoclonal antibody 7G5 against the SARS-CoV-2 S1 (antibody, V domains shown)
VH: QEQLEESGGDLVKPGASLTLTCTASGFSFSSAYYMCWVRQAPGKGLEWIACIGVDSGGNSYYASWAKGRFTISTTSSTTVTLQMTSLTAADKATYFCTRSFSLWGPGTLVTISS
VL: RKWLTQTASSVSAAVGGTVTISCQASQSVYNNDNLAWFQQRPGQPPKLLIYLASNLASGVPPRFSGSGSGTQFTLTISDVQCDDAATYYCLGGYDCSNADCHAFGGGTEVVVKG
B4: no binding [1]; no binding [2]; no binding [3].

B5: rabbit monoclonal antibody 1D2 against the SARS-CoV-2 S1 (antibody, V domains shown)
VH: QSVEESGGRLVTPGTSLTLTCTVSGIDIETYWMSWVRQAPGKGLEWIAIITSHDHSGYANWAEGRFTISKTSTTVTLTITDLQPSDTGTYFCAKDVGHSTYDLWGPGTLVTVSS
VL: AAVLTQTPSPVSAAVGGTVTISCQSSESVLSNNRLSWYQQKPGQPPKLLIYAASTLASGVPSRFKGRGSGTQFTLTISDVQCDDAAMYVCAGAFSGSSDTRAFGGGTEVVVKG
B5: no binding [1]; no binding [2]; no binding (tested: 1000 ng/ml) [5].

Reference: US20220056111A1 (YUROGEN BIOSYSTEMS, published 2022)
